Measurements: PMC13064919, “Novel extracellular vesicle release pathway facilitated by toxic superoxide dismutase 1 oligomers” (Neurobiology of disease, 2026)

Molecular target: the molecule itself
Test: reducing SDS-PAGE western blot; NSC-34 lysate, SDS-PAGE loading dye with 0.1 M DTT, 12% gel

B1: Cavin-1 (natural protein, mouse (endogenous in NSC-34), UniProt O54724 1-392, looked up)
chain: MEDVTLHIVERPYSGFPDASSEGPEPTQGEARATEEPSGTGSDELIKSDQVNGVLVLSLLDKIIGAVDQIQLTQAQLEERQAEMEGAVQSIQGELSKLGKAHATTSNTVSKLLEKVRKVSVNVKTVRGSLERQAGQIKKLEVNEAELLRRRNFKVMIYQDEVKLPAKLSVSKSLKESEALPEKEGDELGEGERPEDDTAAIELSSDEAVEVEEVIEESRAERIKRSGLRRVDDFKKAFSKEKMEKTKVRTRENLEKTRLKTKENLEKTRHTLEKRMNKLGTRLVPVERREKLKTSRDKLRKSFTPDHVVYARSKTAVYKVPPFTFHVKKIREGEVEVLKATEMVEVGPEDDEVGAERGEATDLLRGSSPDVHTLLEITEESDAVLVDKSDSD
notes: Cavin-1, endogenous in NSC-34 cells, detected by western blot; source: endogenous, NSC-34 lysate (RIPA buffer)
stoichiometry N: 2
